These results are taken from article PMC6668832, “Structural basis for recognition of the tumor suppressor protein PTPN14 by the oncoprotein E7 of human papillomavirus” (PLoS Biology, 2019).

The chains are these.
B1: PTP domain of PTPN21 (residues 873–1174) (domain or fragment, human, UniProt Q16825 873-1174, looked up)
chain: EVATRATNDERCKILEQRLEQGMVFTEYERILKKRLVDGECSTARLPENAERNRFQDVLPYDDVRVELVPTKENNTGYINASHIKVSVSGIEWDYIATQGPLQNTCQDFWQMVWEQGIAIIAMVTAEEEGGREKSFRYWPRLGSRHNTVTYGRFKITTRFRTDSGCYATTGLKMKHLLTGQERTVWHLQYTDWPEHGCPEDLKGFLSYLEEIQSVRRHTNSTSDPQSPNPPLLVHCSAGVGRTGVVILSEIMIACLEHNEVLDIPRVLDMLRQQRMMLVQTLCQYTFVYRVLIQFLKSSRLI
notes: human PTPN21, PTP domain, residues 873-1174; also called PTPN21 PTP domain; PTPD1; source: E. coli, modified pPRoEX HTa, purified (Ni-NTA, TEV, second Ni-NTA); not shown: His10, N-terminal, cleaved; green fluorescent protein, N-terminal, cleaved
B2: PTP domain (residues 886–1187) of human PTPN14 (domain or fragment, UniProt Q15678 886-1187, looked up)
chain: VDATRVPMDERFRTLKKKLEEGMVFTEYEQIPKKKANGIFSTAALPENAERSRIREVVPYEENRVELIPTKENNTGYINASHIKVVVGGAEWHYIATQGPLPHTCHDFWQMVWEQGVNVIAMVTAEEEGGRTKSHRYWPKLGSKHSSATYGKFKVTTKFRTDSVCYATTGLKVKHLLSGQERTVWHLQYTDWPDHGCPEDVQGFLSYLEEIQSVRRHTNSMLEGTKNRHPPIVVHCSAGVGRTGVLILSELMIYCLEHNEKVEVPMMLRLLREQRMFMIQTIAQYKFVYQVLIQFLQNSRLI
notes: human PTPN14, catalytic PTP domain, residues 886-1187, untagged; also called PTPN14 PTP domain; nonreceptor-type protein tyrosine phosphatase 14; source: E. coli BL21(DE3) RIL, pET21a, purified (alone or copurified with E7)
B4: C-terminal domain of E7 from HPV11 (residues 45–98) (domain or fragment)
chain: AQPLTQHYQILTCCCGCDSNVRLVVECTDGDIRQLQDLLLGTLNIVCPICAPKP
notes: HPV11 E7, C-terminal domain, residues 45-98; Purified similarly to HPV18 E7, whose tag was removed with TEV; the complex mass of 80–85 kDa fits a cleaved tag; also called HPV11 E7 C-terminal domain; source: E. coli, MBP-modified pET28a, copurified with PTPN14 by mixing cell lysates
B5: C-terminal domain of E7 from HPV16 (residues 45–98) (domain or fragment)
chain: AEPDRAHYNIVTFCCKCDSTLRLCVQSTHVDIRTLEDLLMGTLGIVCPICSQKP
notes: HPV16 E7, C-terminal domain, residues 45-98; Purified similarly to HPV18 E7, whose tag was removed with TEV; the complex mass of 80–85 kDa fits a cleaved tag; also called HPV16 E7 C-terminal domain; source: E. coli, MBP-modified pET28a, copurified with PTPN14 by mixing cell lysates
B6: C-terminal domain of E7 from HPV1a (residues 39–93) (domain or fragment)
chain: LVSPQQPYAVVASCAYCEKLVRLTVLADHSAIRQLEELLLRSLNIVCPLCTLQRQ
notes: HPV1a E7, C-terminal domain, residues 39-93; Purified similarly to HPV18 E7, whose tag was removed with TEV; the complex mass of 80–85 kDa fits a cleaved tag; also called HPV1a E7 C-terminal domain; source: E. coli, MBP-modified pET28a, copurified with PTPN14 by mixing cell lysates
B7: C-terminal domain (residues 54–105) of HPV18 E7, His6-MBP tag removed (domain or fragment)
chain: AEPQRHTMLCMCCKCEARIKLVVESSADDLRAFQQLFLNTLSFVCPWCASQQ
notes: HPV18 E7, C-terminal domain, residues 54-105; Homodimer by SEC-MALS; one zinc ion per monomer; also called HPV18 E7 C-terminal domain; HPV18 E7(54–105); source: E. coli BL21(DE3) RIL, modified pET28a, purified (Ni-NTA, TEV, second Ni-NTA, HiTrap Q, Superdex 75); not shown: His6, N-terminal, cleaved; MBP, N-terminal, cleaved

Data set [1] concerns the target B7. In words: SEC-MALS; Superdex 75 10/300 GL; 50 mM Tris-HCl pH 7.5, 200 mM NaCl, 2 mM dithiothreitol; 6 mg/mL E7 C-terminal domain, 3 mg/mL PTP domain or copurified complex. To be noted: both partners purified.
The target of data set [2] is C-terminal domain of E7 from HPV38 (residues 45–100) (human papillomavirus 38 (HPV38)). The data set is described as above.
C-terminal domain of E7 from HPV38 (residues 45–100) (human papillomavirus 38 (HPV38)), sequence (Q80908 45-100 limits assumed): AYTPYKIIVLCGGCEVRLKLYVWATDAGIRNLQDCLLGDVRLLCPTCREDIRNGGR
Data set [3] deals with C-terminal domain of E7 from HPV4 (residues 44–100) (human papillomavirus 4 (HPV4)). Described as above.
C-terminal domain of E7 from HPV4 (residues 44–100) (human papillomavirus 4 (HPV4)), sequence (Q07857 44-100 limits assumed): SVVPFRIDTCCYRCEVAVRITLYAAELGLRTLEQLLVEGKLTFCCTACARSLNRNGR
For data set [4], the target named is B6. Described as above. To be noted: both partners purified.
Data set [5] has as its target B4. The data set is described as above. As to conditions: both partners purified.
Data set [6] deals with B5. The description is as above. As to conditions: both partners purified.
For data set [7], the target named is B2. In words: ITC; 25 °C, VP-ITC; PTP domain titrated into MBP-tagged HPV18 E7 (0.2 mM into 10 μM in Fig 1B); 20 mM Tris-HCl pH 7.5, 100 mM NaCl, 10 mM β-mercaptoethanol; one-to-one model; triplicate. To be noted: both partners purified. (In ITC the heat of successive injections is recorded.)
Data set [8] addresses B1. The description is as above. As to conditions: both partners purified.
Data set [9] concerns the target B2. The data set can be described thus: SEC; copurified from mixed E. coli lysates (Ni-NTA, TEV, second Ni-NTA); final HiLoad 26/600 Superdex 75 pg gel filtration, fractions on SDS-PAGE with Coomassie staining. As to conditions: both partners purified.
Data set [10] concerns the molecule itself. In words: SEC-MALS; Superdex 75 10/300 GL; 50 mM Tris-HCl pH 7.5, 200 mM NaCl, 2 mM dithiothreitol; 6 mg/mL E7 C-terminal domain, 3 mg/mL PTP domain or copurified complex. On the technique in general: In gel filtration, larger molecules generally elute earlier.

What is called stoichiometry N is the number of molecules, sites or subunits per partner or assembly. B1: the “stoichiometry N” value in data set [1] was 1 PTPN21 per E7 (2:2).
Regarding B2, the stoichiometry N (PTPN14 per E7 (2:2)) in data set [2] and in [3] was 1 in each case. For the same molecule, the “stoichiometry N” value in data set [4], in [5], in [6] and in data set [1] was 1 PTPN14 per E7 (2:2) throughout.

B3: MBP-tagged HPV18 E7 C-terminal domain (residues 54–105) (domain or fragment)
chain: AEPQRHTMLCMCCKCEARIKLVVESSADDLRAFQQLFLNTLSFVCPWCASQQ
notes: HPV18 E7, C-terminal domain, residues 54-105; also called His6–MBP-tagged C-terminal domain of HPV18 E7; source: E. coli BL21(DE3) RIL, modified pET28a, purified; not shown: His6, N-terminal, kept; MBP, N-terminal, kept
The Kd is a measure of binding affinity in units of concentration. A low value points to higher affinity. Take B3: the Kd in [7] stood at 18.2 nM; in data set [8], 5.81 nM.
Consider B4, for which the binding result in data set [9] was “binds”.
For B5, the binding result in [9] is “binds”.
On the same count and under the same terms, in the case of B6 it was “binds”.
As for B7, the “stoichiometry N” value in [10] worked out at 2.
